B1: C1a441-522: distal segment of C1a, residues 441-522 of rat Kv2.1 (protein, UniProt P15387 441-522, looked up, fragment)
chain: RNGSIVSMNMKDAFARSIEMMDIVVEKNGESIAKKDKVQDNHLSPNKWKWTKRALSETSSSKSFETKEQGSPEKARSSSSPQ
B2: C1a: rat Kv2.1 C1a peptide, residues 411-522 of SEQ ID NO: 3, expressed from a plasmid (protein, listed as Rattus norvegicus)
chain: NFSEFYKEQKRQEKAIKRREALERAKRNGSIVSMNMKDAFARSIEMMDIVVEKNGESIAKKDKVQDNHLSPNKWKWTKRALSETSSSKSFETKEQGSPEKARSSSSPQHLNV

Legend:
Kv2.1S800E = assay: Whole-cell K+ current densities in CHO cells expressing Kv2.1S800E; format: cell-based; details: CHO cells co-transfected with Kv2.1S800E and peptide plasmid
Experimental: For electrophysiological experiments, mixed cortical neuronal/glial cultures were prepared from embryonic day 16 (E16) Sprague-Dawley rats (Charles River Laboratories, Wilmington, Mass., USA). Donor rats were euthanized by gradual CO2 exposure. Cortices were dissociated with trypsin, and the resultant cell suspension, adjusted to 670,000 cells per well, was plated on glass coverslips in 6-well plates as described previously (Hartnett et al., J Neurochem 68, 1836-1845, 1997). Non-neuronal cell proliferation was inhibited after two weeks in culture with 1-2 μM cytosine arabinoside, and cultures utilized at three to four weeks in vitro. […]
Current recordings were performed on eGFP-positive co-transfected neurons or CHO cells using the whole-cell patch clamp configuration technique as described previously (McLaughlin et al., J Neurosci 21, 3303-3311, 2001). […] To determine current density values, steady-state current amplitudes were measured 180 msec after the initiation of the +10 mV step and normalized to cell capacitance. […] By repeatedly adjusting the scaling factor k, an automated binary search algorithm determined threshold synaptic conductance (thresh-gsyn), the conductance required to reach firing threshold (Kullmann et al., J Neurophysiol 91, 542-54, 2004). […]

Kv2.1/syntaxin binding = biological target: T1, Kv2.1/syntaxin binding (Homo sapiens, UniProt Q16623); assay: Co-immunoprecipitation of Kv2.1 with syntaxin from transfected CHO cells; format: cell-based; details: for effect on Kv2.1/syntaxin binding (co-immunoprecipitation): syntaxin-expressing CHO cells co-transfected with Kv2.1 and peptide plasmid, syntaxin immunoprecipitates probed for Kv2.1
T1 construct: expressed in transfected cells; host or cells: CHO cells
T1 sequence (Q16623 whole entry): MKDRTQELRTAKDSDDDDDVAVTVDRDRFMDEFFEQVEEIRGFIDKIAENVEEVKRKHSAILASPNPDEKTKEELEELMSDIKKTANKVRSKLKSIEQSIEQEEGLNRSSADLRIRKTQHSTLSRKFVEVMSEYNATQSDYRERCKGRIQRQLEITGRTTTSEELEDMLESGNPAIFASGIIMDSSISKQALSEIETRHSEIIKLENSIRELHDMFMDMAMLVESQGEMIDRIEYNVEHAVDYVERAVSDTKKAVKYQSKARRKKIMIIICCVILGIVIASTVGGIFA
Experimental: For electrophysiological experiments, mixed cortical neuronal/glial cultures were prepared from embryonic day 16 (E16) Sprague-Dawley rats (Charles River Laboratories, Wilmington, Mass., USA). Donor rats were euthanized by gradual CO2 exposure. Cortices were dissociated with trypsin, and the resultant cell suspension, adjusted to 670,000 cells per well, was plated on glass coverslips in 6-well plates as described previously (Hartnett et al., J Neurochem 68, 1836-1845, 1997). Non-neuronal cell proliferation was inhibited after two weeks in culture with 1-2 μM cytosine arabinoside, and cultures utilized at three to four weeks in vitro. For neuronal transfection, cells were treated for five hours in serum-free medium with 2 μL LIPOFECTAMINE™ 2000 (Invitrogen, Carlsbad, Calif.), 50 μL Optimem (GIBCO, Grand Island, N.Y.), and 1.5 μg DNA per well. For CHO cell transfections, cells were plated on coverslips in 24-well plates at a density of 5.6×10^4 cells per well for electrophysiological measurements or in 100 mm dishes at a density of 1.7×10^6 cells per dish for biochemical studies. Cells were treated for 3-4 hours in serum-free medium with a total of 1.2 μL LIPOFECTAMINE™ and 0.28 μg DNA per well for electrophysiology, or 55.1 μL LIPOFECTAMINE™ and 7.33 μg DNA per dish for biochemistry. Following transfection, cells were maintained in F12 medium containing fetal bovine serum at 37° C., 5% CO2 for 24 hours prior to experimentation.
Protein was harvested by washing cell culture dishes with ice cold PBS followed by a short incubation with 1% 3-[(3-cholamidopropyl) dimethylammonio]-1-propanesulfonate buffer. Protein A/G agarose bead slurry (Santa Cruz, Dallas, Tex.) was added to the samples and rocked at 4° C. for 1 hour in order to pre-clear non-specific protein binding. Samples were then incubated overnight at 4° C. with the appropriate immunoprecipitating antibodies. Following another incubation with the bead slurry, the protein samples were prepared/denatured by the addition of sample preparation buffer (625 mM Tris, 25% glycerol, 2% sodium dodecyl sulfate (SDS), 0.01% bromophenol blue and 5% β-mercaptoethanol) and heated at 95° C. for 5 min prior to SDS polyacrylamide gel electrophoresis and immunoblotting.
Protein samples from equal amounts of cell lysate were separated on 10% sodium dodecyl sulfate SDS polyacrylamide gels by electrophoresis using the Mini Protean 3 System (Bio-Rad, Hercules, Calif.). Separated protein bands were transferred onto 0.2 μm nitrocellulose membranes (Bio-Rad), blocked with 1% bovine serum albumin (BSA) in PBS with 0.05% Tween 20 (PBST) at room temperature for 1 hour, and probed with appropriate primary antibodies diluted in PBST. Blots were then incubated with infrared fluorescent goat secondary antibodies at room temperature for 1 hour, visualized using the Odyssey Imaging System (LI-COR Biosciences, Lincoln, Nebr.), and quantified using infrared fluorimetry.
After establishing that C1a effectively precluded the oxidant-induced K^+ current increase in neurons, studies were performed to identify the sub-domains within C1a that could retain the ability to disrupt Kv2.1/syntaxin binding. C1a was divided into overlapping proximal and distal segments, hereafter referred to as C1a411-472 and C1a441-522, respectively. Co-immunoprecipitation experiments were performed to compare the ability of C1a and the smaller segments to displace Kv2.1 from syntaxin. Syntaxin immunoprecipitates of protein samples obtained from CHO cells transfected with a syntaxin-expressing plasmid, and co-transfected with Kv2.1 together with C1a, C1a411-472, or C1a441-522, were probed for Kv2.1.

Row | Molecule | effect on enhanced K+ currents of Kv2.1S800E (Kv2.1S800E) | ability to displace Kv2.1 from syntaxin with Src kinase overexpression (Kv2.1/syntaxin binding; CHO cells co-transfected with Kv2.1 and Src) | effect on Kv2.1/syntaxin binding (co-immunoprecipitation) (Kv2.1/syntaxin binding)
1 | B1 | blocked the increase in currents | retained the ability to displace Kv2.1 from syntaxin | inhibited Kv2.1/syntaxin binding
2 | B2 | suppressed the enhanced K^+ currents |  | inhibited Kv2.1/syntaxin binding

From patent US9932382B2, “Kv2.1 channel-derived peptides and methods of use” (University of Pittsburgh—Of the Commonwealth System of …, priority 2014, dated 2018)
